In PMC7948415:

Biological target: alternative C3 convertase, C3bBb (human) (UniProt P01024)

B1: SG7.AF (natural protein)
chain: ARKHVQELLKTFRRIDFDETRKSVYLQSAKFGVQSQLREPLTKKVLNYWDDVKLSKTCLDRMVTKVNDVKETFYAGFSYACESHNQYSVDCLEAAKPSYLTALGEIRGETEKCLTTRLK
Binder B1 has an IC50 of inhibition of AP-mediated hemolysis of rabbit erythrocytes, properdin-depleted serum against normal human serum of 6 fold.
